Experimental findings from US20220177594A1 are described below.

Broadly, the Kd is a measure of binding affinity in units of concentration. A lower Kd goes with higher affinity. By koff is commonly meant the first-order rate constant of dissociation. Lower therefore signals a long-lived complex. For orientation: kon means the second-order rate constant of association. A lower kon goes with slower complex formation.

Changes are numbered by the printed parent chain.

First the molecules themselves.
B1: Mu_10F07_VH (SEQ ID NO: 39)_D99A (antibody, V domains shown)
VH: DVKLVESGEGLVKPGGSLKLSCAASGFTFSSYAMSWVRQTPEKRLEWVTYISSGGDYFYYADTVKGRFTISRDNARNTLYLQMSSLKSEDTAMYYCTRAPITGTFAYWGQGTLVTVSA
VL: DIQMTQTTSSLSASLGDRVTISCRASQDITNYLNWYQQKPDGTVKLLIYYTSTLHSGVPSRFSGSGSGTDFSLTISNLEQEDIATYFCQQGHMLPWTFGGGTKLEIKR
B2: Mu_02D09_VH (SEQ ID NO: 31)_D31A (antibody, V domains shown)
VH: EVQLVESGGGLVKPGGSLTLSCAASGFTFSAYGMHWLRQAPEKGLEWVAYISSGSRAVFFADTVKGRFTISRDNAKNTLFLQMTSLRSDDTAMYYCARDRYDGRGFAYWGQGTLVTVSA
VL: DIVLTQSPATLSVTPGDSVSLSCRASQSISNNLHWYQQTSHESPRLLITYASQSISGIPSRFSGSGSGTDFTLSINSVETEDFGMYFCQQSNSWPLTFGAGTKLELKR
B3: Mu_02D09_VH (SEQ ID NO: 31)_Y32A (antibody, V domains shown)
VH: B2 VH with A31D, Y32A
VL: B2 VL
B4: Mu_02D09_VL (SEQ ID NO: 33)_S56A (antibody, V domains shown)
VH: B2 VH with A31D
VL: B2 VL with S56A
B5: Mu_02D09_VL (SEQ ID NO: 33)_Q27A (antibody, V domains shown)
VH: B2 VH with A31D
VL: B2 VL with Q27A
B6: Mu_09E09_VH (SEQ ID NO: 35)_Y50A (antibody, V domains shown)
VH: B1 VH with T49A, Y50A, F58I, A99D
VL: B1 VL with I2L, T30N, F71Y, H92N, M93T
B7: Mu_09E09_VH (SEQ ID NO: 35)_T102A (antibody, V domains shown)
VH: B1 VH with T49A, F58I, A99D, T102A
VL: B1 VL with I2L, T30N, F71Y, H92N, M93T
B8: Mu_09E09_VL (SEQ ID NO: 37)_G91A (antibody, V domains shown)
VH: B1 VH with T49A, F58I, A99D
VL: B1 VL with I2L, T30N, F71Y, G91A, H92N, M93T
B9: Mu_09E09_VH (SEQ ID NO: 35)_P100A (antibody, V domains shown)
VH: B1 VH with T49A, F58I, A99D, P100A
VL: B1 VL with I2L, T30N, F71Y, H92N, M93T
B10: Mu_09E09_VL (SEQ ID NO: 37)_L94A (antibody, V domains shown)
VH: B1 VH with T49A, F58I, A99D
VL: B1 VL with I2L, T30N, F71Y, H92N, M93T, L94A
B11: Mu_09E09_VH (SEQ ID NO: 35)_F105A (antibody, V domains shown)
VH: B1 VH with T49A, F58I, A99D, F105A
VL: B1 VL with I2L, T30N, F71Y, H92N, M93T
B12: Mu_09E09_VH (SEQ ID NO: 35)_Y57A (antibody, V domains shown)
VH: B1 VH with T49A, Y57A, F58I, A99D
VL: B1 VL with I2L, T30N, F71Y, H92N, M93T
B13: Mu_09E09_VL (SEQ ID NO: 37)_N34A (antibody, V domains shown)
VH: B1 VH with T49A, F58I, A99D
VL: B1 VL with I2L, T30N, N34A, F71Y, H92N, M93T
B14: Mu_10F07_VH (SEQ ID NO: 39)_I101A (antibody, V domains shown)
VH: B1 VH with A99D, I101A
VL: B1 VL
B15: Mu_10F07_VL (SEQ ID NO: 41)_Y50A (antibody, V domains shown)
VH: B1 VH with A99D
VL: B1 VL with Y50A
B16: Mu_09E09_VL (SEQ ID NO: 37)_Y32A (antibody, V domains shown)
VH: B1 VH with T49A, F58I, A99D
VL: B1 VL with I2L, T30N, Y32A, F71Y, H92N, M93T
B17: Mu_09E09_VH (SEQ ID NO: 35)_D99A (antibody, V domains shown)
VH: B1 VH with T49A, F58I
VL: B1 VL with I2L, T30N, F71Y, H92N, M93T
B18: Mu_19F07_VH (SEQ ID NO: 47)_Y33A (antibody, V domains shown)
VH: EVKLVESEGGLVQPGSSMKLSCTASGFTFSDYAMAWVRQVPEKGLEWVANINYDGSSTYYLDSLKSRFIISRDNAKNILYLQMSSLKSEDTATYYCARGLTWDFDVWGTGTTVTVSS
VL: DIVMTQSHKFMSPSVGDRVSITCKASQDVDTAVAWYQQKPGQSPKLLIYLASTRHTGVPDRFTGSGSGTDFTLTISNVQSEDLADYFCQQYSRFPLTFGAGTKLELKR
B19: Mu_19F07_VL (SEQ ID NO: 49)_Q90A (antibody, V domains shown)
VH: B18 VH with A33Y
VL: B18 VL with Q90A
B20: Mu_19F07_VH (SEQ ID NO: 47)_F104A (antibody, V domains shown)
VH: B18 VH with A33Y, F104A
VL: B18 VL
B21: Mu_19F07_VL (SEQ ID NO: 49)_T53A (antibody, V domains shown)
VH: B18 VH with A33Y
VL: B18 VL with T53A
B22: Mu_19F07_VL (SEQ ID NO: 49)_Q89A (antibody, V domains shown)
VH: B18 VH with A33Y
VL: B18 VL with Q89A
B23: Mu_19F07_VL (SEQ ID NO: 49)_F94A (antibody, V domains shown)
VH: B18 VH with A33Y
VL: B18 VL with F94A
B24: Mu_19F07_VL (SEQ ID NO: 49)_L50A (antibody, V domains shown)
VH: B18 VH with A33Y
VL: B18 VL with L50A
B25: Mu_19F07_VH (SEQ ID NO: 47)_Y59A (antibody, V domains shown)
VH: B18 VH with A33Y, Y59A
VL: B18 VL

Chain of Canine_OSMR_hlgG1_Fc (canine) (chain, as listed by the source limits assumed, form in doubt): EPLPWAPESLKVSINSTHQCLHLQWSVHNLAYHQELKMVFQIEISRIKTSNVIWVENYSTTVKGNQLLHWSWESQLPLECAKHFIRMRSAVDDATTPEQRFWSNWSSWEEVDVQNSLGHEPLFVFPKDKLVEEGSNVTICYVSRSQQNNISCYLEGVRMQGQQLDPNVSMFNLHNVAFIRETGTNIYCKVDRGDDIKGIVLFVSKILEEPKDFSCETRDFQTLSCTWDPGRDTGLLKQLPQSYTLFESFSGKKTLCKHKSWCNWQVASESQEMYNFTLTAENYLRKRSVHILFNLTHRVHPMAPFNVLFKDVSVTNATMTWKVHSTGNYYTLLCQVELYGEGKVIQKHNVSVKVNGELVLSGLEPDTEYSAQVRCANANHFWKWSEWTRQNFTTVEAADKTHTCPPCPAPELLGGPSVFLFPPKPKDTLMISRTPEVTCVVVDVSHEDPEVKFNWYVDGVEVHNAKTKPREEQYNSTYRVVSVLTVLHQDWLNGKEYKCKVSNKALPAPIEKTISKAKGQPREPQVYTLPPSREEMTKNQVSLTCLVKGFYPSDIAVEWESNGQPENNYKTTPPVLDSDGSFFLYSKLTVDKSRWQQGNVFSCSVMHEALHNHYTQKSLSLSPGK

One assay has as its target Canine_OSMR_hlgG1_Fc (canine). Kind of assay: SPR Biacore. (SPR reads the build-up and loss of mass on a sensor chip optically.)
Molecule B1 came in with a dissociation constant (Kd) of 11.2 nM, an off-rate (koff) of 0.000576 s⁻¹ and an on-rate constant (kon) of 51600 M⁻¹ s⁻¹.
The molecule B2 showed a dissociation constant (Kd) of 3.92 nM, a koff of 0.00356 s⁻¹ and a kon of 908000 M⁻¹ s⁻¹.
The matching figures for B3: 34.8 nM, 0.0246 s⁻¹ and 707000 M⁻¹ s⁻¹.
B4 returned a Kd of 159 nM, a koff of 0.00653 s⁻¹ and an on-rate constant (kon) of 41200 M⁻¹ s⁻¹.
The matching figures for B5: 35 nM, 0.00441 s⁻¹ and 126000 M⁻¹ s⁻¹.

A further assay deals with Feline_OSMR_hlgG1_Fc (feline). Kind of assay: SPR Biacore.
Chain of Feline_OSMR_hlgG1_Fc (feline) (chain, as listed by the source limits assumed, form in doubt): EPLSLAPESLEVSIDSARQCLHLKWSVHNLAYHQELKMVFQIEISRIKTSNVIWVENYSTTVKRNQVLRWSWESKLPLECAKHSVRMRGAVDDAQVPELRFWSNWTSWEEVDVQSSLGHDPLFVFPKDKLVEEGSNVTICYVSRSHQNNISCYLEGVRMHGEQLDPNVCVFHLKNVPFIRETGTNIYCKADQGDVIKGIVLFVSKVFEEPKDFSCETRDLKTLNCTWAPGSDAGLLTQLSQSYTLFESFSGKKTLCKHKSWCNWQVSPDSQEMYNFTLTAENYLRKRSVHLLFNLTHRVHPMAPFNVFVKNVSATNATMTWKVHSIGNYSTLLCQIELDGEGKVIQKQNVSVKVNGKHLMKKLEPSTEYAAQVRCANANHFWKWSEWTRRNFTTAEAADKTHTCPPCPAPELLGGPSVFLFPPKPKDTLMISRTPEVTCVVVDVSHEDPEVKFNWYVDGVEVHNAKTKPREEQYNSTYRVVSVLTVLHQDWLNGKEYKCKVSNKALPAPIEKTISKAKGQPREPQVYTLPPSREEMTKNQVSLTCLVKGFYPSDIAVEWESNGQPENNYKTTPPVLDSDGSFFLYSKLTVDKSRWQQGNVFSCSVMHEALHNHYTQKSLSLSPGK
In the case of B6, the Kd was 2.85 nM, the off-rate constant (koff) is 0.00177 s⁻¹ and the on-rate constant (kon) is 622000 M⁻¹ s⁻¹.
On to B7, for which the dissociation constant (Kd) worked out at 1.94 nM, the koff came out at 0.00187 s⁻¹ and the kon is 964000 M⁻¹ s⁻¹.
B8 came in with an equilibrium dissociation constant (Kd) of 2.21 nM, an off-rate (koff) of 0.00203 s⁻¹ and an on-rate (kon) of 918000 M⁻¹ s⁻¹.
B9 had a Kd of 1.27 nM, a koff of 0.000926 s⁻¹ and a kon of 729000 M⁻¹ s⁻¹.
B10 showed a dissociation constant Kd of 0.621 nM, a dissociation rate constant (koff) of 0.00167 s⁻¹ and a kon of 2.68e+06 M⁻¹ s⁻¹.
For the molecule B11, the dissociation constant (Kd) stood at 2.4 nM, the dissociation rate constant (koff) came out at 0.00186 s⁻¹ and the on-rate constant (kon) was 772000 M⁻¹ s⁻¹.
For B1 the same measures were 3.18 nM, 0.000704 s⁻¹ and 221000 M⁻¹ s⁻¹.
In the case of B12, the Kd is 2.54 nM, the koff amounted to 0.0024 s⁻¹ and the kon was determined as 943000 M⁻¹ s⁻¹.
For B13 the same measures were 5.02 nM, 0.00161 s⁻¹ and 321000 M⁻¹ s⁻¹.
For B14 the same measures were 6.88 nM, 0.000701 s⁻¹ and 102000 M⁻¹ s⁻¹.
B15 had a Kd of 0.00714 nM, an off-rate (koff) of 1.73e-06 s⁻¹ and an on-rate (kon) of 242000 M⁻¹ s⁻¹.
For B16, the dissociation constant (Kd) turned out to be 0.632 nM, the dissociation rate constant (koff) came to 0.00158 s⁻¹ and the on-rate (kon) was 2.51e+06 M⁻¹ s⁻¹.
The matching figures for B17: 1.76 nM, 0.00108 s⁻¹ and 612000 M⁻¹ s⁻¹.
For B18 the same measures were 0.407 nM, 0.000108 s⁻¹ and 266000 M⁻¹ s⁻¹.
For B19 the same measures were 0.00048 nM, 1.31e-07 s⁻¹ and 273000 M⁻¹ s⁻¹.
B20 returned an on-rate (kon) of 144000 M⁻¹ s⁻¹.
The molecule B21 showed a Kd of 0.00536 nM, a koff of 9.05e-07 s⁻¹ and an on-rate constant (kon) of 169000 M⁻¹ s⁻¹.
With B22, the Kd amounted to 0.0511 nM, the koff was determined as 2.38e-06 s⁻¹ and the on-rate (kon) worked out at 46500 M⁻¹ s⁻¹.
The matching figures for B23: 0.0052 nM, 4.7e-07 s⁻¹ and 90400 M⁻¹ s⁻¹.
Consider B24, for which the Kd is 0.0143 nM, the dissociation rate constant (koff) was 5.86e-07 s⁻¹ and the association rate constant (kon) was 41100 M⁻¹ s⁻¹.
Take B25: the Kd is 0.4 nM, the dissociation rate constant (koff) came out at 0.000141 s⁻¹ and the kon is 351000 M⁻¹ s⁻¹.
For B2 the same measures were 0.767 nM, 0.000872 s⁻¹ and 1.14e+06 M⁻¹ s⁻¹.
As to B3, the dissociation constant Kd is 6.39 nM, the dissociation rate constant (koff) came out at 0.000765 s⁻¹ and the kon stood at 120000 M⁻¹ s⁻¹.
B4 had a dissociation constant (Kd) of 9.3 nM, a koff of 0.00107 s⁻¹ and an association rate constant (kon) of 116000 M⁻¹ s⁻¹.
For B5, the Kd came to 7.57 nM, the dissociation rate constant (koff) turned out to be 0.00109 s⁻¹ and the kon stood at 144000 M⁻¹ s⁻¹.

For a further assay, the target named is Feline_OSMR_hlgG1_Fc (feline). Kind of assay: indirect ELISA, fOSMR coated; OD ratio to antibody expression control. For orientation: An ELISA detects its analyte on a solid surface through an enzyme-linked reagent.
Turning to B6, the ELISA ratio amounted to 0.31 OD ratio.
Regarding B7, the ELISA ratio was determined as 0.388 OD ratio.
B8: the ELISA ratio is 0.136 OD ratio.
Regarding B9, the ELISA ratio was 0.946 OD ratio.
B10: the ELISA ratio came out at 0.055 OD ratio.
Same read-out and setting: under B11 stands 0.256 OD ratio; under B1, 0.545 OD ratio; under B12, 0.052 OD ratio.
Same read-out and setting: the value for B13 was 0.023 OD ratio.
With B14, the ELISA ratio came out at 0 OD ratio.
Same read-out and setting: the value for B15 was 0 OD ratio.
For B16, the ELISA ratio amounted to 0.092 OD ratio.
On the same count and under the same terms, under B17 stands 0.908 OD ratio; under B18, 1.06 OD ratio; under B19, 1.08 OD ratio.
Still for that read-out and setting: under B20 stands 0.982 OD ratio; under B21, 0.821 OD ratio.
On the same count and under the same terms, under B22 stands 0.985 OD ratio.
As for B23, the ELISA ratio turned out to be 1.09 OD ratio.
For the molecule B24, the ELISA ratio was found to be 1.11 OD ratio.
On the same count and under the same terms, the value for B25 was 0.74 OD ratio; that for B2 was 0.159 OD ratio.
Still for that read-out and setting: the value for B3 was 0.991 OD ratio; that for B4 was 0 OD ratio; that for B5 was 0.025 OD ratio.
